1 substance from paper PMC5784833 (Journal of the American Chemical Society, 2017) can be followed below.

For the data set, the system named is CC(=O)Oc1ccc([N+](=O)[O-])cc1. Nature of the data set: purified protein.

The term Km denotes the concentration of substrate that gives half-maximal velocity. Turning to “carbonic anhydrase II (CA-II) (Homo sapiens)”, the Km is 2520 ± 260 µM.
